Two molecules from article PMC2576301, “The crystal structure of the catalytic domain of a eukaryotic guanylate cyclase” (BMC Structural Biology, 2008) can be followed below.

Data set [1] concerns the target catalytic domain of the soluble guanylate cyclase CYG12 from Chlamydomonas reinhardtii (Chlamydomonas reinhardtii). Briefly: crystal structure; sitting-drop vapor diffusion, 20°C; 0.1 M sodium cacodylate pH 5.0-6.4, 42-62% saturated (NH4)2HPO4; molecular replacement; 2.55 Å; one dimer per asymmetric unit.
Substrate in data set [2]: Nc1nc2c(ncn2[C@@H]2O[C@H](COP(=O)(O)OP(=O)(O)OP(=O)(O)O)[C@@H](O)[C@H]2O)c(=O)[nH]1
Briefly: cGMP formation, enzyme immunoassay; Hill fit. It is filed as biochemical, Chlamydomonas reinhardtii. The note with it: 4 mM MnCl2, pH 7.5, 24 °C, 5 mM dithiothreitol, 2 min, positive cooperativity, Hill coefficient 1.49 ± 0.16.

The term stoichiometry N denotes the number of molecules, sites or subunits per partner or assembly. Molecule “catalytic domain of the soluble guanylate cyclase CYG12 from Chlamydomonas reinhardtii (domain or fragment)” yielded a stoichiometry N in data set [1] of 2.

B1: guanylate cyclase catalytic domain of CYG12 (Chlamydomonas reinhardtii) (protein)
chain: APAQEHPEATVLFSDIVGFTEIASRSSPLEVCSLLDELYQRFDAAIEEYPQLYKVETIGDAYMVVCNVTVPCDDHADVLLEFALRMHEEASRVASSLGEPVRIRVGMHSGPVVAGVVGRKMPRFCLFGDTVNTASRMESHGEAGQIHISEACYCCLRSKERFEIRERGNITVKGKGTMRTYLLSPLER
notes: catalytic domain, residues 468-655 of 991; His-SMT3 (SUMO) fusion cleaved off; expressed in E. coli Tuner(DE3); homodimer
On to B1, for which the K0.5 in data set [2] is 269 ± 26 µM.
